One sequence from US10682388B2, “Targeting of PELP1 in cancer therapy” (THE BOARD OF REGENTS OF THE UNIVERSITY OF TEXAS SYSTEM, priority 2014, dated 2020) can be followed below.

One assay addresses PELP1 (Homo sapiens, UniProt Q8IZL8). The assay can be described thus: Peptide pull-down assay, biotin-tagged peptides on avidin beads with nuclear lysates from ZR75 cells. As to conditions: one hour, FIG. 1D. The assay is classed as binding. How it is done: FIGS. 1A-D. (FIG. 1A) Diagram for yeast two hybrid screen to identify PELP1 binding peptides. Four regions of PELP1 were tagged with the binding domain and a library of 10^6 random peptides (Clontech) were bound to an activation domain. The number of positive colonies per region of PELP1 are shown in the graph. (FIG. 1B) A proliferation assay was performed with […]1 cells plated in a 96 well plate, treated with peptide every 3 days and absorbance was measured at 7 days. (FIG. 1C) ZR75 were plated in a 6-well plate on coverslips in 8% RPMI and treated with 10 uM FITC labeled peptide for 30, 60, or 120 minutes. They were then fixed with pararformaldehyde, stained for PELP1 (red) and DAPI (blue), and imaged by confocal microscopy to monitor intracellular delivery. (FIG. 1D) ZR75 cells were starved of estrogen for 72 hours and treated with estradiol 10^-7 M for 12 hours. Nuclear lysate was incubated with biotin-tagged peptides bound to avidin beads for one hour. Beads were washed, run on SDS-PAGE gel and probed for PELP1 expression. Input of nuclear lysate is shown as control. Peptides were linked to EZ-Link NHS-Biotin (Thermo Scientific) per manutfacturer's protocol. […] Beads were washed 3× with IP buffer (20 mM HEPES pH 7.9, 20% glycerol, 0.1% triton-x, 100 mM KCl), eluted with SDS-dye, and PELP1 expression was determined by western blotting. […]

The next assay has as its target T1, PELP1-G9a complex (Homo sapiens, UniProt Q8IZL8).
T1 construct: purified bacterial, full-length PELP1; host or cells: bacteria (PELP1)
The assay is described as follows: In vitro peptide competition assay, G9a-GST on glutathione beads with purified PELP1. The assay is classed as binding. As to conditions: peptides 2, 5, 10 μM, 2 hours, FIGS. 2C, 7B, 9. On the procedure:
FIGS. 2A-D. (FIG. 2A) Immunoprecipitation was performed on nuclear lysates obtained from ZRPELP1 cells grown in 5% DCC for 72 hours and treated with estradiol 10^−7 M for 12 hours. PELP1 was immunoprecipitated and western blotting was performed for PELP1 and G9a expression with IgG as the control. (FIG. 2B) Various fragments of PELP1 bound to glutathione beads were incubated with recombinant G9a for 2 hours. Beads were washed, run on an SDS-PAGE gel and immunoblotted for G9a expression. GST tag alone is shown as control. (FIG. 2C) Recombinant G9a-GST was bound to glutathione beads and incubated with purified PELP1 and peptides for 2 hours. Beads were washed and run on SDS-PAGE gel. (FIG. 2D) ZR75 cells were transfected with ERE-luciferase, PELP1 and/or G9a plasmids and treated with peptide for 24 hours and estradiol 10^−7 M for 12 hours. Relative luciferase activity is shown.
FIGS. 7A-E. (FIG. 7A) Bacterial purified PELP1 was incubated with biotin-tagged peptides bound to avidin beads for one hour. Beads were washed, run on SDS-PAGE gel and probed for PELP1 expression. Input of bacterial PELP1 is shown as control. (FIG. 7B) Recombinant G9a-GST was bound to glutathione beads and incubated with purified PELP1 and peptides for 2 hours. Beads were washed and run on SDS-PAGE gel. (+2 μM, ++5 μM, +++10 μM). (FIG. 7C) ZRGST and ZRPELP1GST cells were transfected in triplicate with TopFlash β-catenin reporter and treated with TAT or PIP1 (10 μM) for 24 hours. Relative luciferase activity is shown. (FIG. 7D) MCF7vec and MCF7PELP1 cells were treated with TAT or PIP1 (10 μM) and toxicity was measured by CytoTox-Flour Cytotoxicity Assay. (FIG. 7E) ZR75 and ZR75PELP1 cells were treated with TAT, PIP1 or PIP2 for 24 hours and immunoblotted for PELP1 and ERα expression with actin as the loading control.
FIG. 9. […]
Peptides were linked to EZ-Link NHS-Biotin (Thermo Scientific) per manutfacturer's protocol. […] Beads were washed 3× with IP buffer (20 mM HEPES pH 7.9, 20% glycerol, 0.1% triton-x, 100 mM KCl), eluted with SDS-dye, and PELP1 expression was determined by western blotting. […]

In the next assay the test system is ZRPELP1 cells. The assay can be described thus: Initial screen, proliferation assay of PELP1-overexpressing breast cancer cells. The conditions noted are these: FIG. 1B. The assay is classed as cell-based, Human. How it is done:
FIGS. 1A-D. (FIG. 1A) Diagram for yeast two hybrid screen to identify PELP1 binding peptides. Four regions of PELP1 were tagged with the binding domain and a library of 10^6 random peptides (Clontech) were bound to an activation domain. The number of positive colonies per region of PELP1 are shown in the graph. (FIG. 1B) A proliferation assay was performed with […]1 cells plated in a 96 well plate, treated with peptide every 3 days and absorbance was measured at 7 days. (FIG. 1C) ZR75 were plated in a 6-well plate on coverslips in 8% RPMI and treated with 10 uM FITC labeled peptide for 30, 60, or 120 minutes. They were then fixed with pararformaldehyde, stained for PELP1 (red) and DAPI (blue), and imaged by confocal microscopy to monitor intracellular delivery. (FIG. 1D) ZR75 cells were starved of estrogen for 72 hours and treated with estradiol 10^-7 M for 12 hours. Nuclear lysate was incubated with biotin-tagged peptides bound to avidin beads for one hour. Beads were washed, run on SDS-PAGE gel and probed for PELP1 expression. Input of nuclear lysate is shown as control. Cell proliferation rates were measured by using MTT Cell Viability Assay in 96-well plates. Model cells were seeded in 96-well plates (1×10^3 cells/well) in DMEM or RPMI medium containing 10% serum. After an overnight incubation, cells were treated with varying concentrations of the peptides for 3-7 days and growth inhibition was determined by using traditional MTT assay (Sigma) following manufacturer's instructions.

Sequence of PELP1 (Q8IZL8 whole entry, the tested form may be a part): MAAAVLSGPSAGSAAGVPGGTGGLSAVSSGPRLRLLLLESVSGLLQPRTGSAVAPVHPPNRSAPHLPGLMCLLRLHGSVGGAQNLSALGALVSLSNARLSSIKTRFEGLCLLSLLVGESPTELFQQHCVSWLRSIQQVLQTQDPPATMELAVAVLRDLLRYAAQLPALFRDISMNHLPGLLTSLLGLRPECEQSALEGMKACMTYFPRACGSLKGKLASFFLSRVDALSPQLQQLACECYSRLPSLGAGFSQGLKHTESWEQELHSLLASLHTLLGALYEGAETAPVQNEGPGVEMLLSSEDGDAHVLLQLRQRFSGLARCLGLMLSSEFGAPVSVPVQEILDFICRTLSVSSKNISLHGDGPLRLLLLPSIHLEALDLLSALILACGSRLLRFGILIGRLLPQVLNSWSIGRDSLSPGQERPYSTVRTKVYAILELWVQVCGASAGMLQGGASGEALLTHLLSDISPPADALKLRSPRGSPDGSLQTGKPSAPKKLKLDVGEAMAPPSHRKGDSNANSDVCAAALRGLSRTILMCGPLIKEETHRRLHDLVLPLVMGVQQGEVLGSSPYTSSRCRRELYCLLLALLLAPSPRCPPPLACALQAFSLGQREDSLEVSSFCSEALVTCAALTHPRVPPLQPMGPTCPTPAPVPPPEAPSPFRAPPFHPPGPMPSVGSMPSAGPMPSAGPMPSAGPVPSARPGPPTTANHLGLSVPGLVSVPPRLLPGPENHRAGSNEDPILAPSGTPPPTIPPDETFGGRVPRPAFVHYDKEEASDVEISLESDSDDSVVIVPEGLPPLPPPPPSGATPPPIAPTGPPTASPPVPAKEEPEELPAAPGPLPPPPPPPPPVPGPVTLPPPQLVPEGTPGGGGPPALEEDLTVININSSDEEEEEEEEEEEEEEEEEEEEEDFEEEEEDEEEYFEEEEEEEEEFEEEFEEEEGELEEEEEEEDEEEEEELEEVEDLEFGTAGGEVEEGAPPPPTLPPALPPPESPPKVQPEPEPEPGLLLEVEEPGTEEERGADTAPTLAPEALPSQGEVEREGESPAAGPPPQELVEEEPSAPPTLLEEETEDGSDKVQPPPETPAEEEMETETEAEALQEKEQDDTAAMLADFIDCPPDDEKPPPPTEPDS
T1 sequence (Q8IZL8 2-1130, one chain of several): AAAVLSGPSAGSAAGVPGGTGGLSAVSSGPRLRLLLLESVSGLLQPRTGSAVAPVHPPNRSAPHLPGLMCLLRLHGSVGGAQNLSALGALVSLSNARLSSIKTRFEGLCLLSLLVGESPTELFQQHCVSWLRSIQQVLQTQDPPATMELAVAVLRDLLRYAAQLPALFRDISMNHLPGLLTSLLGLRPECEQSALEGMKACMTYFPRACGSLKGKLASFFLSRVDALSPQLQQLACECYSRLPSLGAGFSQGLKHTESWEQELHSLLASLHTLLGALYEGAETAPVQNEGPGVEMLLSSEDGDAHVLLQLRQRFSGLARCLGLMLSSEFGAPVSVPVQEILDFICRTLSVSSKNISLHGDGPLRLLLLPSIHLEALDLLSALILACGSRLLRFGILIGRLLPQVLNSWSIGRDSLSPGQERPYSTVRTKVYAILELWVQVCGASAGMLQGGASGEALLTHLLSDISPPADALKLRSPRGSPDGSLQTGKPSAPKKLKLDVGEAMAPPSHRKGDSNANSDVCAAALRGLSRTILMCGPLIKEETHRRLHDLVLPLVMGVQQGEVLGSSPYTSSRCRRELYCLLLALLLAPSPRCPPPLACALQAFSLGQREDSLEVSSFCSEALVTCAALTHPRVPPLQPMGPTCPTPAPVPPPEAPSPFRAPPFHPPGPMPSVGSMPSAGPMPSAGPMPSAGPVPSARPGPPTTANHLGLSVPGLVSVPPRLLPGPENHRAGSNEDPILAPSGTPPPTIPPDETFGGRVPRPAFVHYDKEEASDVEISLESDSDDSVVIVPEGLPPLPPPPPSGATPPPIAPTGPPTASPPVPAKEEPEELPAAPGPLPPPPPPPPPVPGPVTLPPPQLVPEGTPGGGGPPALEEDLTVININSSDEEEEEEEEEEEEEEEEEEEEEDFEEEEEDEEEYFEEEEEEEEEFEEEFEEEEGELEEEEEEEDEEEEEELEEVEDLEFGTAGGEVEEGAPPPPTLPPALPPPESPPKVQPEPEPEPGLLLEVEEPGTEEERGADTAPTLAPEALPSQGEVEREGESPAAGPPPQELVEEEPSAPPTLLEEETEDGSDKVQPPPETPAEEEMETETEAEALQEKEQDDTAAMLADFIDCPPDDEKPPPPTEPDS

Consider GRKKRRQRRRGGMVEFRWSCPGRRKAKA [PIP1], for which the “affinity to bind to PELP1 in peptide pull-down” value in the assay with PELP1 is listed as “higher affinity to bind to PELP1 than PIP2”. Further, the “disruption of PELP1 interaction with G9a/EHMT2” value with PELP1-G9a complex is recorded as “disrupted by the addition of either of the two peptides in a dose-dependent manner”. Also, in the assay with ZRPELP1 cells, the “efficiency at inhibiting proliferation, PIP1 compared with PIP2” value is “more efficient at inhibiting proliferation than PIP2”. Moreover, in the assay on ZRPELP1 cells (peptide every 3 days, absorbance at 7 days), the “PELP1-mediated breast cancer cell proliferation” value is given as “significantly inhibit PELP1-mediated proliferation”.
